Experimental data reported in publication PMC3340179.

Molecular target: STAT3-GFP (STAT3-EGFP fusion, unphosphorylated) (UniProt P40763)
Test: MST

STAT3-GFP (STAT3-EGFP fusion, unphosphorylated), sequence (P40763 whole entry, the tested form may be a part): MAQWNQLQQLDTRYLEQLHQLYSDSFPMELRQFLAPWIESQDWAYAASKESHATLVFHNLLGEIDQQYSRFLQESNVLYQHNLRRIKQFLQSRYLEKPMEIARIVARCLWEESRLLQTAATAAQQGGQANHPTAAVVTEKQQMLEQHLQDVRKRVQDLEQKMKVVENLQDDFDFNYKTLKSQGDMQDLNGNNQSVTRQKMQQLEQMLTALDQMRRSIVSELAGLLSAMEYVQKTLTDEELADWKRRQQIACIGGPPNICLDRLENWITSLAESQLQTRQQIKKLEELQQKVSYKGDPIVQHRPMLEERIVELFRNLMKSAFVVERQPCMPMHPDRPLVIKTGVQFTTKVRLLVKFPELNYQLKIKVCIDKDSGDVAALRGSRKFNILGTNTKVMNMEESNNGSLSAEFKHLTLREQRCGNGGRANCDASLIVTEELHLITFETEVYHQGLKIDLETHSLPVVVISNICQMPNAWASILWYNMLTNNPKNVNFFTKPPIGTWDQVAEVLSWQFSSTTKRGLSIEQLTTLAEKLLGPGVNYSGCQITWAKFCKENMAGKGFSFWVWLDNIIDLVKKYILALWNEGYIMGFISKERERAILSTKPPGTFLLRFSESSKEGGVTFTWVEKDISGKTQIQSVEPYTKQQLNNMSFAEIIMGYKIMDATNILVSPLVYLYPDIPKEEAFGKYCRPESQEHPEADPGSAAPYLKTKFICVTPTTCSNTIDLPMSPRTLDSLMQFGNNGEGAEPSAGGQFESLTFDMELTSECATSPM

| Sequence | Kd [µM] |
| --- | --- |
| AAAACAAAACGAAACAAACAAACTA (double strand) [S+100] | 23.3 |
| GTTTCCGGGAAAGCAGTAGGTTTCCGGGAAAG (double strand) [GAS] | 37.9 |
